In paper PMC13065467, “Assembly and phosphoregulatory mechanisms of the budding yeast outer kinetochore KMN complex” (The Journal of Cell Biology, 2026):
Ends that are not written are not given here.

Tests used:
[1] = tested on: KlMis12c^Mtw1c containing an intact Dsn1^AI; conditions: lower concentrations (50 nM) for CENP-U^Ame1, unphosphorylated complex, ref Dimitrova et al., 2016; cited from earlier work
[2] = target: KlMis12c^Mtw1c with phosphomimetic mutations of Dsn1^AI; conditions: fluorescence polarization; K. lactis complex with phosphomimetic mutations (Asp mutants of S213/S223); ref Dimitrova et al., 2016; cited from earlier work
Excerpt: We further investigated the effect of Dsn1^AI on the interaction between K^HB-RWDM (which has wild-type unphosphorylated Dsn1^AI) and a peptide modeled on the N-terminal 38 residues of CENP-C^Mif2 (CENP-C^Mif2_1–38). […] Also similar to Dimitrova et al. (2016), using ITC we found no binding of CENP-UAme1_1-33 to the unphosphorylated KM. […] We cannot accoun ... || (+ 2 further places)

[3] = tested on: T1, K^HB-RWDM^Dsn1Δ257 (Knl1c:Mis12c^Mtw1c complex, Knl1^Spc105 residues 1–444 and Dsn1 residues 1–257 deleted); test: ITC, Dsn1 peptide titrated into K^HB-RWDM^Dsn1Δ257; assay type: binding, S. cerevisiae
T1 construct: made in house; host or cells: High-5 insect cells (baculovirus)
T1 sequence (Q04431 whole entry, stated change not applied, one chain of several, further chain, the tested form may be a part): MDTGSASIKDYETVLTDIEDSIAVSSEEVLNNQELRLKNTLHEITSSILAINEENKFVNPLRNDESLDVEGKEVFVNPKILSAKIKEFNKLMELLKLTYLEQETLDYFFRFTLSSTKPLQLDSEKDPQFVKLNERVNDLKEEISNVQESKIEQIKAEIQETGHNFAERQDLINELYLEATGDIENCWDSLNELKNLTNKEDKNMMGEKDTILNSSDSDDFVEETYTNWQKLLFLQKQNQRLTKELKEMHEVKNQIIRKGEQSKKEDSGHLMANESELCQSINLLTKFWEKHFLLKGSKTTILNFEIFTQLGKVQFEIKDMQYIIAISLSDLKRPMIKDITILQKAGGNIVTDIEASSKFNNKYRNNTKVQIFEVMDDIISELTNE
T1 sequence (P53148 445-917, stated change not applied, one chain of several, further chain): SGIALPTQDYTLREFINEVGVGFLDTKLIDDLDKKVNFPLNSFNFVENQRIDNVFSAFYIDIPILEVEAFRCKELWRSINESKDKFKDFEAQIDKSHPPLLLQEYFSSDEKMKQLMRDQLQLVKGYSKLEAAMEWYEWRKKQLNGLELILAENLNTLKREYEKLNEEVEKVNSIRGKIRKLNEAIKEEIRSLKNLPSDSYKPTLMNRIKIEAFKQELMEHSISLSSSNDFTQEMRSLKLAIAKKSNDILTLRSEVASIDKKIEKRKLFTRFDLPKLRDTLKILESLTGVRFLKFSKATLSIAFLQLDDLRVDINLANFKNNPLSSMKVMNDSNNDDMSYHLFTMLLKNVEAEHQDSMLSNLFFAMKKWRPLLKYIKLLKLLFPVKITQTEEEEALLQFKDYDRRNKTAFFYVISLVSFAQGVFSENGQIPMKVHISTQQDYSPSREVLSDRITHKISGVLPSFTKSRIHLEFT
Protocol: Dsn1^228–254 and Dsn1^228–254,S240E,S250E peptides were synthesized by Alta BioScience with N-terminal acetylation and C-terminal GSAW extension and amidation. The final sequence of Dsn1^228–254 was […], and Dsn1^228–254,S240E,S250E was […]. All protein complexes and peptides used in a given experiment were dialyzed for a minimum of 16 h and/or buffer-exchanged by size-exclusion chromatography into the same batch of ITC buffer (25 mM HEPES, pH 7.5, 100 mM NaCl, 1 mM TCEP). All experiments were performed using an Auto-iTC200 instrument (Malvern Instruments) at 25°C. In each experiment, 360 μl of protein complex was pipetted into the calorimeter cell. The protein complex loaded into the calorimeter cell contained Knl1c:Mis12c^Mtw1c with Knl1^Spc105_HB-RWD and Dsn1^Δ1–257 and either wild-type Mis12^Mtw1 (K^HB-RWDM ^Dsn1Δ257) or Mis12^Mtw1_E69A,E73A,E77A mutant (K^HB-RWDM ^Dsn1Δ257_Mis12-3A). Wild-type constructs of all other Knl1c and Mis12c^Mtw1c subunits were included. Titration of either the Dsn1^228–254 or Dsn1^228-254,S240E,S250E peptide into the cell was then performed by an initial injection of 0.5 μl, followed by 19 further injections of 2.0 μl each. […] Titrations were performed in duplicate or triplicate, and reported KD and n values were calculated as an average from all replicate results.

[4] = target: Knl1c:Mis12c^Mtw1c complex K^HB-RWDM^2E (full-length Dsn1 with S240E and S250E phosphomimetic mutations), P53148;Q04431;P40568;P39731;P47149;Q12143; test: ITC; conditions: Syringe: CENP-U^Ame1_1-33-Mut (0.32 mM); Cell: K^HB-RWDM^2E (0.016 mM); parent: 1.35 ± 0.08
[5] = target: T2, S. cerevisiae Ndc80 complex (Ndc80, Nuf2, Spc24, Spc25) (S. cerevisiae, UniProt P40460 1-691; P33895 1-451; Q04477 1-213; P40014 1-221); test: SEC; 4 μM Mis12c^Mtw1c (wild type or mutant) mixed with 4 μM Ndc80c in KMN buffer, 30 min on ice; Superose 6 3.2/300; fractions on SDS-PAGE; conditions: both partners purified
T2 construct: Ndc80, S. cerevisiae S288c; Nuf2, S. cerevisiae S288c; Spc24, S. cerevisiae S288c; Spc25, S. cerevisiae S288c; The Twin-Strep tag on Nuf2 is TEV cleavable; no cleavage is described; source: High-5 insect cells (two baculoviruses), purified (Strep-Tactin, Resource Q, SEC); copies: + + +
T2 sequence (P40460 whole entry, chain 1 of 4): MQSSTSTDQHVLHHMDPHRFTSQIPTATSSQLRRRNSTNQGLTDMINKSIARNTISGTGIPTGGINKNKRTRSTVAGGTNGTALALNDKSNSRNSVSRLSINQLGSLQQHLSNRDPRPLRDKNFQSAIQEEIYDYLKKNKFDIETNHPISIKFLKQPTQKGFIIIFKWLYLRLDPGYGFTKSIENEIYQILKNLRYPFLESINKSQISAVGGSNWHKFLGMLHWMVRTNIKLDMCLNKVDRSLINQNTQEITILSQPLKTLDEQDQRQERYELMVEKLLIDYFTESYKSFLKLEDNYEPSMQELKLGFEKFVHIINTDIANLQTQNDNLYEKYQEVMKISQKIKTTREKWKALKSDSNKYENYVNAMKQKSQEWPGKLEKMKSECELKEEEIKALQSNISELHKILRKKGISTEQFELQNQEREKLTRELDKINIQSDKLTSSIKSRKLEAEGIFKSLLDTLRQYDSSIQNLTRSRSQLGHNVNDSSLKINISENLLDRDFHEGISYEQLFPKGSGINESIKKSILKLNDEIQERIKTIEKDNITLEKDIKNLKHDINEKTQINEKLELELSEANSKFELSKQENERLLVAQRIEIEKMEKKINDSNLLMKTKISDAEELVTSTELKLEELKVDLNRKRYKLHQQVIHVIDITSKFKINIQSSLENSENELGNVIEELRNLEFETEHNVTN
T2 sequence (P33895 whole entry, chain 2 of 4): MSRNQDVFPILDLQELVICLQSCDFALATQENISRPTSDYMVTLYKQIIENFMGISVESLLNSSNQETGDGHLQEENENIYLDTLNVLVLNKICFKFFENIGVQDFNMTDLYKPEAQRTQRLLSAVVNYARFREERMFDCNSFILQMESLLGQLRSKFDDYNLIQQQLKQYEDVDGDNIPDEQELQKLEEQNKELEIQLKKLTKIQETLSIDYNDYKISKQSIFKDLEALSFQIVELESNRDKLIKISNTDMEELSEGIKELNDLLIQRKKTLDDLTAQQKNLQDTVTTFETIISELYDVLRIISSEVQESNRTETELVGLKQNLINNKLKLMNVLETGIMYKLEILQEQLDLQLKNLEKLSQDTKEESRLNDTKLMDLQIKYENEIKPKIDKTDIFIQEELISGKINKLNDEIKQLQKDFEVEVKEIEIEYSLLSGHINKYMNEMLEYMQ
T2 sequence (Q04477 whole entry, chain 3 of 4): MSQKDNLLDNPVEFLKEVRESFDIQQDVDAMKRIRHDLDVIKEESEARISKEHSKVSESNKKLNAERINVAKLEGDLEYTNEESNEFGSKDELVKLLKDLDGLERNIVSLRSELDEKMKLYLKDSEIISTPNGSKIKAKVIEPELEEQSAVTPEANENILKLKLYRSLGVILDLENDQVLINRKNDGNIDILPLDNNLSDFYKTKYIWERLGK
T2 sequence (P40014 whole entry, chain 4 of 4): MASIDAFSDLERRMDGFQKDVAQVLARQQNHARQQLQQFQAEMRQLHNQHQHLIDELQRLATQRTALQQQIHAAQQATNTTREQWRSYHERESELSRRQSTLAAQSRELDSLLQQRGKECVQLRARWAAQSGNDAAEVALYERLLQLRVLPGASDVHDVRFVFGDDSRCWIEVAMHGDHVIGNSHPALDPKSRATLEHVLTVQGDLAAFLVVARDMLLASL

[6] = target: T3, Knl1c:Mis12c^Mtw1c complex K^HB-RWDM^2E (full-length Dsn1 with S240E and S250E phosphomimetic mutations) (S. cerevisiae, UniProt P53148 445-917; Q04431 1-385; P40568 1-576; P39731 1-289; P47149 1-201; Q12143 …, S240E | S250E); test: ITC; peptide titrated into the complex in the cell; 20°C; 25 mM HEPES pH 7.5, 100 mM NaCl, 0.5 mM TCEP; conditions: both partners purified
T3 construct: Knl1^Spc105_HB-RWD: Knl1^Spc105, S. cerevisiae S288c, residues 445-917; ZWINT^Kre28, S. cerevisiae S288c; no truncation stated; Dsn1^S240E,S250E: full-length Dsn1, S. cerevisiae S288c, with phosphomimetic mutations; Mis12^Mtw1, S. cerevisiae S288c; Nnf1, S. cerevisiae S288c; Nsl1, S. cerevisiae S288c; also called KM^2E; K^HB-RWDM^S240E,S250E; source: High-5 insect cells (baculovirus), purified …
T3 sequence (P53148 445-917, chain 1 of 2): as the sequence (P53148 445-917, stated change not applied, one chain of several, further chain) above
T3 sequence (Q04431 whole entry, chain 2 of 2, the tested form may be a part): as the sequence (Q04431 whole entry, stated change not applied, one chain of several, further chain, the tested form may be a part) above

## CENP-C^Mif2_1-41: CENP-C^Mif2 peptide (residues 1-41) reported by Dimitrova et al., 2016 (MDYMKLGLKSRKTGIDVKQDIPKDEYSMENIDDFFKDDETS; UniProt P35201 1-41, looked up, fragment)
[1]
  binding (fluorescence polarization): no binding
[2]
  Kd: 1750 nM

## K. lactis CENP-U^Ame1_1-25: residues 1–25 of K. lactis CENP-U^Ame1, reported by Dimitrova et al., 2016 (MDALKQRHLKLLYRQRGSASRTIDY; UniProt Q6CUE5 1-25, looked up, fragment)
[1]
  binding (fluorescence polarization): did not interact
[2]
  Kd: 1480 nM

## Ac-PHYIQRTRERKKEIGSQRGRRLEMLASGSAW-NH2 [Dsn1^228-254,S240E,S250E]
[3]; ratio of ITC KD values, S240E,S250E peptide versus wild-type Dsn1^228–254
  decrease of affinity versus wild-type peptide: fivefold
[3]; read-out: KD (ITC) of phosphomimetic Dsn1 peptide, ITC, 25°C, 25 mM HEPES pH 7.5, 100 mM NaCl, 1 mM TCEP, syringe 0.35 mM, cell 0.025 mM, average from two experiments (technical repeats)
  Kd: 6000 nM

## CENP-U^Ame1_1–33 peptide (residues 1–33 of CENP-U^Ame1) D25A; V27A; I28A; F29A; T31A
[4]
  other: N (ITC stoichiometry): 1.34

B1: Isolated Mis12c^Mtw1c, full-length and wild-type proteins (Dsn1, Nsl1, Mis12^Mtw1, Nnf1) (complex, S. cerevisiae)
chain 1: MSLEPTQTVSGTPPMLHQRTHKQVYPLRMETIPILESDSKATLQSNEPTQKDEEETEYFENKQSVSNLSPDLKFKRHKNKHIQGFPTLGERLDNLQDIKKAKRVENFNSSAPIADDNHSGDATANATANATANATANVNASAMPAPYMPYYYYYHPMNAPTPAMIPYPGSPMHSIMPNSSLQPFYSQPTAAGGPDMTTPQNISSSQQLLPAPQLFPYGSFHQQQLQQPHYIQRTRERKKSIGSQRGRRLSMLASQANGGSTIISPHKDIPEEDFYTVVGNASFGKNLQIRQLFNWCLMRSLHKLELKAKNQEEEGELEHLTKKSKLESTKAETDYVDPKRLAMVIIKEFVDDLKKDHIAIDWEDEEKYEDEDEEKILDNTENYDDTELRQLFQENDDDDDDDDEVDYSEIQRSRRKFSERRKALPKEPKKLLPNSKNVENTKNLSILTSKVNAIKNEVKEWAVTLDTSRPDLEWQELTSFSSQPLEPLSDTEEPDLAIADVETKLETKVDELRYQSHILNSHSLALNEITNSKVNKLNIETMRKISSETDDDHSQVINPQQLLKGLSLSFSKKLDL
chain 2: MSQGQSKKLDVTVEQLRSIYHQFHDILEEKTDLHLPKKEYDDDAVRREVQIQLQEFLLSAMTMASKSLEVVNADTVGKTVKQLIMESQEKYMEPFDLDLNEQVRKMYQEWEDETVKVAQLRQTGPAKINEVYNNSKDEYLAQLDGRIGVLQARMMQQQSADHDDSTDDADDHINWEHIKQDYVASLNELYQTQQDLPKVRYNVEKVKRLMDFLEED
chain 3: MSAPTMRSTSILTEHLGYPPISLVDDIINAVNEIMYKCTAAMEKYLLSKSKIGEEDYGEEIKSGVAKLESLLENSVDKNFDKLELYVLRNVLRIPEEYLDANVFRLENQKDLVIVDENELKKSEEKLREKVNDVELAFKKNEMLLKRVTKVKRLLFTIRGFKQKLNELLKCKDDVQLQKILESLKPIDDTMTLLTDSLRKLYVDSESTSSTEEVEALLQRLKTNGKQNNKDFRTRYIDIRTNNVLRKLGLLGDKEDEKQSAKPDARTQAGDIVSIDIEEPQLDLLDDVL
chain 4: MVNSHGIRYIRLKQVFNRALDQSISKLQSWDKVSSCFPQYVNSKQGAINVANCQRQLTEFWTELCQREFKEIMEERNVEQKLNELDELILEAKERYTDRDQDEVNKGPAIDELSSKELVECHLYSQRMHAIHEIDERLAKVNEMNDQLAQELKDLETQVEVEKNEIGKMYDEYLGSHTDQPANVLLVQSLNDMVLELKENY
notes: Dsn1, S. cerevisiae S288c; Nsl1, S. cerevisiae S288c; Mis12^Mtw1, S. cerevisiae S288c; Nnf1, S. cerevisiae S288c; source: High-5 insect cells (two baculoviruses), purified (Strep-Tactin, SEC); copies: + + +
[5]
  binding result: binds

B2: Mis12c^Mtw1c_Mis12ΔC (isolated Mis12c^Mtw1c with Mis12^Mtw1 residues 272–289 deleted) (complex, S. cerevisiae)
chain 1: B1 chain 1
chain 2: B1 chain 2
chain 3: MSAPTMRSTSILTEHLGYPPISLVDDIINAVNEIMYKCTAAMEKYLLSKSKIGEEDYGEEIKSGVAKLESLLENSVDKNFDKLELYVLRNVLRIPEEYLDANVFRLENQKDLVIVDENELKKSEEKLREKVNDVELAFKKNEMLLKRVTKVKRLLFTIRGFKQKLNELLKCKDDVQLQKILESLKPIDDTMTLLTDSLRKLYVDSESTSSTEEVEALLQRLKTNGKQNNKDFRTRYIDIRTNNVLRKLGLLGDKEDEKQSAKPDARTQAGD
chain 4: B1 chain 4
notes: Dsn1, S. cerevisiae S288c; Nsl1, S. cerevisiae S288c; Nnf1, S. cerevisiae S288c; also called Mis12^Mtw1_Δ272-C; source: High-5 insect cells (two baculoviruses), purified (Strep-Tactin, SEC); copies: + + +
[5]
  binding result: binds

B3: Mis12c^Mtw1c_Nnf1ΔC (isolated Mis12c^Mtw1c with Nnf1 residues 180–201 deleted) (complex, S. cerevisiae)
chain 1: B1 chain 1
chain 2: B1 chain 2
chain 3: B1 chain 3
chain 4: MVNSHGIRYIRLKQVFNRALDQSISKLQSWDKVSSCFPQYVNSKQGAINVANCQRQLTEFWTELCQREFKEIMEERNVEQKLNELDELILEAKERYTDRDQDEVNKGPAIDELSSKELVECHLYSQRMHAIHEIDERLAKVNEMNDQLAQELKDLETQVEVEKNEIGKMYDEYLGSHTD
notes: Dsn1, S. cerevisiae S288c; Nsl1, S. cerevisiae S288c; Mis12^Mtw1, S. cerevisiae S288c; Nnf1^Δ180-C: Nnf1, S. cerevisiae S288c, residues 180-201 deleted; also called Nnf1^Δ180-C; source: High-5 insect cells (two baculoviruses), purified (Strep-Tactin, SEC); copies: + + +
[5]
  binding result: binds

B4: Mis12c^Mtw1c_Mis12ΔC-Nnf1ΔC (isolated Mis12c^Mtw1c with Mis12^Mtw1 residues 272–289 and Nnf1 residues 180–201 deleted) (complex, S. cerevisiae)
chain 1: B1 chain 1
chain 2: B1 chain 2
chain 3: B2 chain 3
chain 4: B3 chain 4
notes: Dsn1, S. cerevisiae S288c; Nsl1, S. cerevisiae S288c; Nnf1^Δ180-C: Nnf1, S. cerevisiae S288c, residues 180-201 deleted; source: High-5 insect cells (two baculoviruses), purified (Strep-Tactin, SEC); copies: + + +
[5]
  binding result: binds

B5: CENP-C^Mif2_1–38 peptide (N-terminal 38 residues of CENP-C^Mif2) (peptide)
peptide: MDYMKLGLKSRKTGIDVKQDIPKDEYSMENIDDFFKDD-NH2
notes: CENP-C^Mif2, S. cerevisiae, residues 1-38; source: synthetic peptide (Alta BioScience)
[6]
  Kd: 980 nM

B6: CENP-U^Ame1_1–33 peptide (residues 1–33 of CENP-U^Ame1) (peptide)
peptide: MDRDTKLAFRLRGSHSRRTDDIDDDVIVFKTPNW-NH2
notes: CENP-U^Ame1, S. cerevisiae, residues 1-33; added C-terminal tryptophan after residue 33 (so in the source); source: synthetic peptide (Alta BioScience)
[6]
  Kd: 240 nM

B7: CENP-U^Ame1_1-33-Mut peptide (CENP-U^Ame1_1-33 with Ala substitutions) (peptide)
peptide: MDRDTKLAFRLRGSHSRRTDDIDDAAAVAKAPNW-NH2
notes: CENP-U^Ame1, S. cerevisiae, residues 1-33 with five Ala substitutions; added C-terminal tryptophan after residue 33 (so in the source); also called CENP-U^Ame1_1-33 mutant; source: synthetic peptide (Alta BioScience)
[6]
  Kd: 1310 nM
